Data published in article PMC6862324.

Molecular target: T1, FLAG-tagged human NLRP1 (human), Q9C000
T1 chain: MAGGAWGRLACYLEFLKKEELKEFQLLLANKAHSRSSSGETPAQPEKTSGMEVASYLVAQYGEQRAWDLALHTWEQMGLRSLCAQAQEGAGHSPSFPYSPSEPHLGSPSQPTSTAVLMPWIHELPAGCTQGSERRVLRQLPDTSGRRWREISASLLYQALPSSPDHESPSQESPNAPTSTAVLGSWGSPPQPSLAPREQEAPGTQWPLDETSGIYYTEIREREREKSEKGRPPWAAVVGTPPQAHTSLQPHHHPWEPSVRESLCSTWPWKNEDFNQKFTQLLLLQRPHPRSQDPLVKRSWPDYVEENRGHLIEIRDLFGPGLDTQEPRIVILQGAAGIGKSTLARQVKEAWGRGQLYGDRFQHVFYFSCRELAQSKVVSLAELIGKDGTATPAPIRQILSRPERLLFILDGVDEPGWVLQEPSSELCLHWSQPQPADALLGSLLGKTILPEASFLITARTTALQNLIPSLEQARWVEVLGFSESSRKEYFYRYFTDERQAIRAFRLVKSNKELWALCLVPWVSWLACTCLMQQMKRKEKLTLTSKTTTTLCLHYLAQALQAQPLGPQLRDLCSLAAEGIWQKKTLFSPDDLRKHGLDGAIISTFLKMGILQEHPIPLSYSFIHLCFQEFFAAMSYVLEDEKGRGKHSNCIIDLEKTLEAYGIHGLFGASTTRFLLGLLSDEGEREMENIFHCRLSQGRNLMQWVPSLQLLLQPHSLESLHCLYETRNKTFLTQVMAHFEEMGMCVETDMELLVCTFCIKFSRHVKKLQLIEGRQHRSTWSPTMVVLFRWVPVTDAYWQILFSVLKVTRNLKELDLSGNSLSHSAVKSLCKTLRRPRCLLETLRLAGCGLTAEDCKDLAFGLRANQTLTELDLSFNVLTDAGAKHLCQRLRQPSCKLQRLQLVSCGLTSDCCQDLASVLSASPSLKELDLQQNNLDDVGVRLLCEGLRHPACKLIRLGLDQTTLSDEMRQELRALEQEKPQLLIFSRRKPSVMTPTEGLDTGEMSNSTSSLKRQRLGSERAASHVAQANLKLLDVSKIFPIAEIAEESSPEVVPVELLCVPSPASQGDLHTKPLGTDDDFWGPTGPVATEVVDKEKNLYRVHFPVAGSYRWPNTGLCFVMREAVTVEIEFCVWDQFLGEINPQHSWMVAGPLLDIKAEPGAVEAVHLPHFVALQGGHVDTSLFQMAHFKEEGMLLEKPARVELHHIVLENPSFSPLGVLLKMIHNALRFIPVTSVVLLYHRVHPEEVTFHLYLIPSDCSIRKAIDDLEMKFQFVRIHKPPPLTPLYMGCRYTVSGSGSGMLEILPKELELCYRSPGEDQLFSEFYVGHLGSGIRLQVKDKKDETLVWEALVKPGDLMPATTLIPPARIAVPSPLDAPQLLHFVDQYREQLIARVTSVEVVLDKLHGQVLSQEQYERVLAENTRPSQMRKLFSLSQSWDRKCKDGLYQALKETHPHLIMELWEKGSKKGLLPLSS
Experiment: co-IP
Settings: remark: other sources report otherwise

B1: endogenous DPP9, Q86TI2 1-863 (enzyme)
chain: MATTGTPTADRGDAAATDDPAARFQVQKHSWDGLRSIIHGSRKYSGLIVNKAPHDFQFVQKTDESGPHSHRLYYLGMPYGSRENSLLYSEIPKKVRKEALLLLSWKQMLDHFQATPHHGVYSREEELLRERKRLGVFGITSYDFHSESGLFLFQASNSLFHCRDGGKNGFMVSPMKPLEIKTQCSGPRMDPKICPADPAFFSFINNSDLWVANIETGEERRLTFCHQGLSNVLDDPKSAGVATFVIQEEFDRFTGYWWCPTASWEGSEGLKTLRILYEEVDESEVEVIHVPSPALEERKTDSYRYPRTGSKNPKIALKLAEFQTDSQGKIVSTQEKELVQPFSSLFPKVEYIARAGWTRDGKYAWAMFLDRPQQWLQLVLLPPALFIPSTENEEQRLASARAVPRNVQPYVVYEEVTNVWINVHDIFYPFPQSEGEDELCFLRANECKTGFCHLYKVTAVLKSQGYDWSEPFSPGEDEFKCPIKEEIALTSGEWEVLARHGSKIWVNEETKLVYFQGTKDTPLEHHLYVVSYEAAGEIVRLTTPGFSHSCSMSQNFDMFVSHYSSVSTPPCVHVYKLSGPDDDPLHKQPRFWASMMEAASCPPDYVPPEIFHFHTRSDVRLYGMIYKPHALQPGKKHPTVLFVYGGPQVQLVNNSFKGIKYLRLNTLASLGYAVVVIDGRGSCQRGLRFEGALKNQMGQVEIEDQVEGLQFVAEKYGFIDLSRVAIHGWSYGGFLSLMGLIHKPQVFKVAIAGAPVTVWMAYDTGYTERYMDVPENNQHGYEAGSVALHVEKLPNEPNRLLILHGFLDENVHFFHTNFLVSQLIRAGKPYQLQIYPNERHSIRCPESGEHYEVTLLHFLQEYL
B1 showed a fold reduction of binding with VbP (10 uM, in the lysate) against DMSO of 2 fold.
